{"source": "paper PMC11327109", "about": "“Unwinding of a eukaryotic origin of replication visualized by cryo-EM” (Nature Structural & Molecular Biology, 2024)", "key": {"[1]": {"test_system": "T1, sCMGE10 (single Cdc45-MCM-GINS-Polε with Mcm10)", "T1 construct": "gene MCM2; His- or TwinStrepII-tagged GINS; MCM loaded as Mcm2-7/Cdt1; wild type; ATP/ADP in MCM ATPase tier; with Cell division control protein 45; DNA replication complex GINS protein PSF1; DNA replication complex GINS protein PSF2; DNA replication complex GINS protein PSF3; DNA replication complex GINS protein SLD5; DNA polymerase epsilon catalytic subunit A; DNA polymerase epsilon subunit B; DNA polymerase epsilon subunit C; DNA polymerase epsilon subunit D; Minichromosome maintenance protein 10", "test": "cryo-EM structure of complex ([…]-3.[…] Å)", "type": "binding, Saccharomyces cerevisiae", "conditions": "assembled with 5 mM ATP, magnesium acetate, pH 7.6, bound to origin DNA; MCM ATPase sites"}, "Mcm10 wild-type": {"target": "T2, Mcm10 wild-type (Saccharomyces cerevisiae, UniProt P32354 1-571)", "T2 sequence": "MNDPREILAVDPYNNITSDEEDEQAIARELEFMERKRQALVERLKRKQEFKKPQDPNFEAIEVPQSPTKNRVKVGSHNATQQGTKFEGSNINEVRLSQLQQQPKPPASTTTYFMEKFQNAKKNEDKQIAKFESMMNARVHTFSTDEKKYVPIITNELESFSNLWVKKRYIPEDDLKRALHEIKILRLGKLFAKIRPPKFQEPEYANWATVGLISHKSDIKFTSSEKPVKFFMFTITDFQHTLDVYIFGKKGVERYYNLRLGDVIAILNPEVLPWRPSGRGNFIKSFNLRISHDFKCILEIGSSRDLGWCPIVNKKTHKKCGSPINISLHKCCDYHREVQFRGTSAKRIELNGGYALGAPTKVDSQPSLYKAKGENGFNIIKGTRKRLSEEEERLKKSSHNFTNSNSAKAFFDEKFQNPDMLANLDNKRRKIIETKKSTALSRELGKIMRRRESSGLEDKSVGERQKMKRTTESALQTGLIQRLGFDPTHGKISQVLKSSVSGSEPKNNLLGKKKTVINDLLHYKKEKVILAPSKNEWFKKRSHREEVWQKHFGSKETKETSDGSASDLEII", "test": "MST; 10 mM Mg acetate; MST: 25 mM HEPES-KOH pH 7.6, 100 mM K-glutamate, 10 mM Mg acetate, 0.02% NP-40, 0.5 mM TCEP, 5 nM ssDNA, room temperature, 30 min; CMG assembly/EM: same buffer", "conditions": "protein: recombinant; tags: N-terminal His, C-terminal Flag (pHis-Mcm10-Flag); label: FAM (after the 3' end)"}, "[2]": {"target": "T3, Mcm10 3A (OB-fold mutant) (Saccharomyces cerevisiae, UniProt P32354 1-571, F230A;Y245A;F247A)", "T3 sequence": "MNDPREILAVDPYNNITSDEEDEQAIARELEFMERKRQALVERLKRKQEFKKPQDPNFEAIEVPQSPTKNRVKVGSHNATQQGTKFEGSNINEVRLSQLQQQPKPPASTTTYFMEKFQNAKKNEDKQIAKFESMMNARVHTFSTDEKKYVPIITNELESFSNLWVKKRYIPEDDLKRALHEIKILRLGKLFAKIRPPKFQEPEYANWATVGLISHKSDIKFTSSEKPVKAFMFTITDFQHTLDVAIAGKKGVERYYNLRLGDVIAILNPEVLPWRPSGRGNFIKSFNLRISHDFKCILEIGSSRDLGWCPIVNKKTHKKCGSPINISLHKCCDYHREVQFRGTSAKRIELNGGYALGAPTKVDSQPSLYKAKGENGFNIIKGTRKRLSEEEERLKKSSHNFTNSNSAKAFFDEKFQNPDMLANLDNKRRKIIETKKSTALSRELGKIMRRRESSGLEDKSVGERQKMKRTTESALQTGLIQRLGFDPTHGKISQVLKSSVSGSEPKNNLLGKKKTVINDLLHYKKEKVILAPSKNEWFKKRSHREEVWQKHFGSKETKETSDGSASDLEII", "test": "MST; 10 mM Mg acetate; MST: 25 mM HEPES-KOH pH 7.6, 100 mM K-glutamate, 10 mM Mg acetate, 0.02% NP-40, 0.5 mM TCEP, 5 nM ssDNA, room temperature, 30 min; CMG assembly/EM: same buffer", "conditions": "protein: recombinant; label: FAM (after the 3' end)"}, "Mcm10 deltaCTD": {"target": "T4, Mcm10 deltaCTD (Saccharomyces cerevisiae, UniProt P32354 1-357, del358-571)", "T4 sequence": "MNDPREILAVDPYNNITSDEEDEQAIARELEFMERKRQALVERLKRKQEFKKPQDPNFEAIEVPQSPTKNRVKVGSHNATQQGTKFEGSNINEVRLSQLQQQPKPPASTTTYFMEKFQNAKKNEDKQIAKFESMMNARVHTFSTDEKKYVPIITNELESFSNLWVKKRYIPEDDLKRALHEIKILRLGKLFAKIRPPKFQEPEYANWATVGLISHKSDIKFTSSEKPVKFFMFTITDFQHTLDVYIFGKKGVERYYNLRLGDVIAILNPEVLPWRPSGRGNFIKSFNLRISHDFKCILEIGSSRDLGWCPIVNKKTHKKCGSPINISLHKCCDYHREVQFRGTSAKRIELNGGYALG", "test": "MST; 10 mM Mg acetate; MST: 25 mM HEPES-KOH pH 7.6, 100 mM K-glutamate, 10 mM Mg acetate, 0.02% NP-40, 0.5 mM TCEP, 5 nM ssDNA, room temperature, 30 min; CMG assembly/EM: same buffer", "conditions": "protein: recombinant; tags: N-terminal 6xHis, C-terminal 3xFlag; label: FAM (after the 3' end)"}}, "data": [{"molecule": "Nc1ncnc2c1ncn2[C@@H]1O[C@H](COP(=O)(O)OP(=O)(O)OP(=O)(O)O)[C@@H](O)[C@H]1O", "note": "[ATP]", "values": [{"measurement": "cryo-EM structure of complex (3.7-3.9 Å)", "setting": "[1]", "result": "Cryo-EM density for nucleotide ATP and ADP for consensus, ssDNA and nexus map"}]}, {"molecule": "Nc1ncnc2c1ncn2[C@@H]1O[C@H](COP(=O)(O)OP(=O)(O)O)[C@@H](O)[C@H]1O", "note": "[ADP]", "values": [{"measurement": "cryo-EM structure of complex (3.7-3.9 Å)", "setting": "[1]", "result": "Cryo-EM density for nucleotide ATP and ADP for consensus, ssDNA and nexus map"}]}, {"molecule": "CCCCCCCCCCCC (ssDNA)", "note": "[FAM-labelled dC12 ssDNA]", "values": [{"measurement": "binding result", "setting": "Mcm10 wild-type", "result": "binds"}, {"measurement": "binding result", "setting": "[2]", "result": "no binding"}, {"measurement": "binding result", "setting": "Mcm10 deltaCTD", "result": "binds"}]}]}
